Patent US6537765B2, “GPR10 as a target for identifying weight modulating compounds” (Millennium Pharmaceuticals, Inc., priority 1998, dated 2003)
No end group written: not given here.

Assays:
GPR10 [1] = target: T1, GPR10 (Mus musculus, UniProt Q6VMN6); assay: Food intake after intracerebroventricular injection of PrRP in mice; assay type: in vivo; conditions: 0.1, 1, 5, 10 mg PrRP intracerebroventricular vs saline, measured for two hours after treatment
T1 construct: from tissue; host or cells: brain of living C57BL/6J mice (lean and ob/ob), intracerebroventricular dosing
T1 sequence (Q6VMN6 1-370): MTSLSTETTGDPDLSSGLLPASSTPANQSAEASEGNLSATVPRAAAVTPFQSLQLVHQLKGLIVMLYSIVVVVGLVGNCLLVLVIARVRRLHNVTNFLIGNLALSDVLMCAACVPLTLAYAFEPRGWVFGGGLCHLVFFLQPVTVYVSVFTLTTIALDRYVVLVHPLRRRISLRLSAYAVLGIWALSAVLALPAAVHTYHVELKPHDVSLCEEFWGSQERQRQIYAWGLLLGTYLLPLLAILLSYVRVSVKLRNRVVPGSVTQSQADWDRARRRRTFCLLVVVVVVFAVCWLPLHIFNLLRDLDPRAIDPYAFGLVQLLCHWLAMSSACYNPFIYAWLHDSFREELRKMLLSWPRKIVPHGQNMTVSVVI
Protocol: A 31 amino acid amidated synthetic peptide having the sequence of rat PrRP ([…]-NHz; SEQ ID NO:4; Hinuma et al., (1998) Nature 393:272-76) was used to examine the effect of GPR10 modulators on food intake.
Male and female lean and male obese ob/ob C57BL/6J mice were individually housed in macrolon cages (22±2° C.; 12:12 hr light:dark cycle with lights off at 6 pm). Tap water and mouse chow were given ad libitum. Mice were stereoaxically implanted with a chronic guide cannula aimed to the third ventricle (intracerebroventricular) one week prior to the initiation of the experiment.
Mice (15/group) were treated with […] of PrRP peptide or saline (control) by intracerebroventricular injections at 9:00 am. Food intake was measured for two hours after treatment.

hGR3 = target: T2, hGR3 (Homo sapiens, UniProt P49683); conditions: receptor expressed in human pituitary, nearly identical to GPR10; cited from earlier work
T2 sequence (P49683 1-370): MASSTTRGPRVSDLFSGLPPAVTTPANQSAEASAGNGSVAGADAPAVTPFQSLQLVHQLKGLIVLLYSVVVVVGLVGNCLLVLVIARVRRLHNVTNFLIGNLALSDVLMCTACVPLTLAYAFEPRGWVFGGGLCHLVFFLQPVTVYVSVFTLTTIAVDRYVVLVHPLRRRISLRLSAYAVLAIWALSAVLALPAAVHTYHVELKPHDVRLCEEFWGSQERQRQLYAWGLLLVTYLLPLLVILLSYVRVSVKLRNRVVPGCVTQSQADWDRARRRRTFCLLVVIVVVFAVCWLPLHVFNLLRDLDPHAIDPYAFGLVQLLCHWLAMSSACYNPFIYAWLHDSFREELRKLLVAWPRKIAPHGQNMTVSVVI

GPR10 [2] = target: T1, GPR10; assay: Metabolic rate of mice in an open-circuit calorimeter after intracerebroventricular PrRP; assay type: in vivo; conditions: 5 μg PrRP intracerebroventricular vs saline
Protocol: The effect of a 5 μg dose of PrRP on the metabolic rate of male mice denied or permitted access to food was investigated as follows. Male C57BL/6J mice maintained as described above were placed in an open-circuit calorimeter coupled to a feeding monitor. The mice were administered 5 μg of PrRP or saline intracerebroventricularly at 1 hr and 45 min after the start of metabolic monitoring. One group (n=6) of mice was allowed access to food and one group of mice (n=6) was not allowed access to food. Respiratory quotient was calculated as the ratio of CO2 production/O2 consumption. Metabolic rate (kcal/g/h) was computed based on O2 consumption and respiratory rate quotient.

[3] = system: anterior pituitary cells of lactating rats; conditions: anterior pituitary cells of lactating rats in vitro; cited from earlier work

food intake (GPR10 [1]; lean female C57BL/6J mice, FIG. 4): increased food intake | food intake (GPR10 [1]; lean male C57BL/6J mice, FIG. 3): increased food intake | food intake (GPR10 [1]; male obese ob/ob C57BL/6J mice, FIG. 5): increased food intake | metabolic rate (GPR10 [2]; lean male C57BL/6J mice having access to food, FIG. 7): increases the metabolic rate | metabolic rate (GPR10 [2]; lean male C57BL/6J mice having no access to food, FIG. 6): increases the metabolic rate
Substance: PrRP: 31 amino acid amidated synthetic peptide having the sequence of rat PrRP (SRAHQHSMETRTPDINPAWYTGRGIRPVGRF-NHz; SEQ ID NO:4); a GPR10 ligand (SRAHQHSMETRTPDINPAWYTGRGIRPVGRF-NH2; listed as Mus musculus)
binding to hGR3 (hGR3): binds to hGR3 | release of prolactin [3]: stimulates release of prolactin
